Results on 17 molecules are retold here after patent US20210380703A1 (RIGEL PHARMACEUTICALS, published 2021).

The target of one test is T1, Human ACVR2A (human, UniProt P27037 20-135, limits assumed).
T1 construct: also called activin receptor, type II A
Put plainly: ELISA. Summed up: (§1)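 Monoclonal antibodies were first applied to human or mouse ACVR2A, alongside biotinylated goat anti-human kappa light chain (positive control) and human Fc (negative control); binding was then determined by ELISA.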
On the technique in general: ELISA stands for enzyme-linked immunosorbent assay.

A further test addresses Mouse ACVR2A (mouse, UniProt P27038 20-135, limits assumed). Put plainly: ELISA. Summed up:
as §1

The target of the next test is T2, Goat anti-Human Kappa.
T2 construct: Positive control of the ELISA; also called biotinylated goat anti-human kappa light chain
Nature of the test: ELISA, positive control. A digest of the protocol: as §1
Further: test concentration or dose not given here.

T1 sequence (P27037 20-135 limits assumed): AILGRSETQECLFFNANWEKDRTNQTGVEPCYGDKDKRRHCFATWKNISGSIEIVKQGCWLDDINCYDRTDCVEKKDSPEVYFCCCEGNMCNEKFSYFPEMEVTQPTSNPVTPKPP
Sequence of Mouse ACVR2A (P27038 20-135 limits assumed): as the sequence (P27037 20-135 limits assumed) above, with K20R, V73I counted along it

B1: 370_D11 (antibody, V domains shown)
VH: EVQLLESGGGLVQPGGSLRLSCAASGFTFDSYSMNWVRQAPGKGLEWVSGINYNGGYTGYADSVKGRFTISRDNSKNTLYLQMNSLRAEDTAVYYCARSANWHDTALDYWGQGTLVTVSS
VL: DIQMTQSPSSLSASVGDRVTITCRASQSIVSYLNWYQQKPGKAPKLLIYAATSRASGVPSRFSGSGSGTDFTLTISSLQPEDFATYYCQQSYDTPLTFGGGTKVEIK
Take B1: the optical density worked out at 2.72 OD with Human ACVR2A, 2.79 OD with Mouse ACVR2A and 3.38 OD with Goat anti-Human Kappa.

B2: 370_G03 (antibody, V domains shown)
VH: EVQLLESGGGLVQPGGSLRLSCAASGFTFSSYSMNWVRQAPGKGLEWVANINYNGGYTGYADSVKGRFTISRDNSKNTLYLQMNSLRAEDTAVYYCARSANWHDTALDYWGQGTLVTVSS
VL: DIQMTQSPSSLSASVGDRVTITCRASQSILTYVNWYQQKPGKAPKLVIYATTSRASGVPSRFSGSGSGTDFTLTISSLQPEDFATYYCQQSYNNPLTFGGGTKVEIK
For the molecule B2, the figures for the optical density in the test with Human ACVR2A, with Mouse ACVR2A and in the test with Goat anti-Human Kappa were 3.1 OD, 3.44 OD and 3.58 OD, respectively.

B3: 370_H01 (antibody, V domains shown)
VH: EVQLLESGGGLVQPGGSLRLSCAASGFTFSSYSMNWVRQAPGKGLEWVSGINYNSGYKGYADSVKGRFTISRDNSKNTLYLQMNSLRAEDTAVYYCARSANWHDTALDYWGQGTLVTVSS
VL: DIQMTQSPSSLSASVGDRVTITCRASQSIISYLNWYQQKPGKAPKLLIYAVTSRASGVPSRFSGSGSGTDFTLTISSLQPEDFATYYCQQSYDTPLTFGGGTKVEIK
Regarding B3, the optical density was found to be 3.31 OD with Human ACVR2A, 3.18 OD in the test with Mouse ACVR2A and 3.65 OD with Goat anti-Human Kappa.

B4: 370_E06 (antibody, V domains shown)
VH: EVQLLESGGGLVQPGGSLRLSCAASGFTFSSYGMNWVRQAPGKGLEWVSGINYNSGYKSYADSVKGRFTISRDNSKNTLYLQMNSLRAEDTAVYYCARSANWHDTALDYWGQGTLVTVSS
VL: DIQMTQSPSSLSASVGDRVTITCRASQSILSYLNWYQQKPGKAPKLVIYATTSLASGVPSRFSGSGSGTDFTLTISSLQPEDFATYYCQQSYDTPLTFGGGTKVEIK
For B4, the values for the optical density with Human ACVR2A, with Mouse ACVR2A and with Goat anti-Human Kappa were 2.9 OD, 3.02 OD and 3.61 OD, respectively.

B5: 370_G10 (antibody, V domains shown)
VH: EVQLLESGGGLVQPGGSLRLSCAASGFTFSDYGMNWVRQAPGKGLEWVSGINYNSGYTSYADSVKGRFTISRDNSKNTLYLQMNSLRAEDTAVYYCARSANWHDTALDYWGQGTLVTVSS
VL: DIQMTQSPSSLSASVGDRVTITCRASQSISSYLNWYQQKPGKAPKLLIYVVNNRASGVPSRFSGSGSGTDFTLTISSLQPEDFATYYCQQSYENPLTFGGGTKVEIK
Turning to B5, the values for the optical density in the test with Human ACVR2A, in the test with Mouse ACVR2A and with Goat anti-Human Kappa were 2.98 OD, 2.74 OD and 3.49 OD, respectively.

B6: 370_G02 (antibody, V domains shown)
VH: EVQLLESGGGLVQPGGSLRLSCAASGFTFSDYSMNWVRQAPGKGLEWVANINYNGGYKGYADSVKGRFTISRDNSKNTLYLQMNSLRAEDTAVYYCARSANWHDTALDYWGQGTLVTVSS
VL: DIQMTQSPSSLSASVGDRVTITCRASQSIVSYLNWYQQKPGKAPKLLIYAATSRHSGVPSRFSGSGSGTDFTLTISSLQPEDFATYYCQQSYDSPLTFGGGTKVEIK
As to B6, the optical density with Human ACVR2A was determined as 2.98 OD; with Mouse ACVR2A it was 3.22 OD; in the test with Goat anti-Human Kappa, 3.62 OD.

B7: 370_F07 (antibody, V domains shown)
VH: EVQLLESGGGLVQPGGSLRLSCAASGFTFDSYSMNWVRQAPGKGLEWVSNINYNGGYKGYADSVKGRFTISRDNSKNTLYLQMNSLRAEDTAVYYCARSANWHDTALDYWGQGTLVTVSS
VL: DIQMTQSPSSLSASVGDRVTITCRASQSILSYLNWYQQKPGKAPKLLIYAATSRASGVPSRFSGSGSGTDFTLTISSLQPEDFATYYCQQSYNLPLTFGGGTKVEIK
For the molecule B7, the optical density with Human ACVR2A is 3.45 OD; in the test with Mouse ACVR2A, 3.53 OD; with Goat anti-Human Kappa, 3.52 OD.

B8: 370_G06 (antibody, V domains shown)
VH: EVQLLESGGGLVQPGGSLRLSCAASGFTFSDYGMHWVRQAPGKGLEWVSSINYNGGYTSYADSVKGRFTISRDNSKNTLYLQMNSLRAEDTAVYYCARSANWHDTALDYWGQGTLVTVSS
VL: DIQMTQSPSSLSASVGDRVTITCRASQSILSYVNWYQQKPGKAPKLVIYAATSRASGVPSRFSGSGSGTDFTLTISSLQPEDFATYYCQQSDNTPLTFGGGTKVEIK
For B8, the values for the optical density in the test with Human ACVR2A, with Mouse ACVR2A and with Goat anti-Human Kappa were 2.19 OD, 2.33 OD and 3.41 OD, respectively.

B9: 370_E09 (antibody, V domains shown)
VH: EVQLLESGGGLVQPGGSLRLSCAASGFTFDDSSMHWVRQAPGKGLEWVSNINYNGGYTGYADSVKGRFTISRDNSKNTLYLQMNSLRAEDTAVYYCAKSANWHDTALDYWGQGTLVTVSS
VL: DIQMTQSPSSLSASVGDRVTITCRASQSILSYVNWYQQKPGKAPKLVIYAATSRASGVPSRFSGSGSGTDFTLTISSLQPEDFATYYCQQSYELPLTFGGGTKVEIK
Turning to B9, the figures for the optical density with Human ACVR2A, in the test with Mouse ACVR2A and with Goat anti-Human Kappa were 3.45 OD, 3.56 OD and 3.6 OD, respectively.

B10: 370_G09 (antibody, V domains shown)
VH: EVQLLESGGGLVQPGGSLRLSCAASGFTFSSYGMNWVRQAPGKGLEWVAGINYNGGYKSYADSVKGRFTISRDNSKNTLYLQMNSLRAEDTAVYYCARSANWHDTALDYWGQGTLVTVSS
VL: DIQMTQSPSSLSASVGDRVTITCRASQSILSYVNWYQQKPGKAPKLVIYAATSRASGVPSRFSGSGSGTDFTLTISSLQPEDFATYYCQQSYESPLTFGGGTKVEIK
Take B10: the figures for the optical density with Human ACVR2A, in the test with Mouse ACVR2A and in the test with Goat anti-Human Kappa were 3.01 OD, 3.14 OD and 3.64 OD, respectively.

B11: 370_F05 (antibody, V domains shown)
VH: EVQLLESGGGLVQPGGSLRLSCAASGFTFSSYGMNWVRQAPGKGLEWVSGINYNSGYTSYADSVKGRFTISRDNSKNTLYLQMNSLRAEDTAVYYCARSANWHDTALDYWGQGTLVTVSS
VL: DIQMTQSPSSLSASVGDRVTITCRASQSIVSYVNWYQQKPGKAPKLVIYAATSRASGVPSRFSGSGSGTDFTLTISSLQPEDFATYYCQQSYETPLTFGGGTKVEIK
In the case of B11, the optical density with Human ACVR2A was 2.76 OD; with Mouse ACVR2A, 2.91 OD; in the test with Goat anti-Human Kappa it was 3.54 OD.

B12: 370_F10 (antibody, V domains shown)
VH: EVQLLESGGGLVQPGGSLRLSCAASGFTFSSYSMNWVRQAPGKGLEWVAGINYNGGYTSYADSVKGRFTISRDNSKNTLYLQMNSLRAEDTAVYYCARSANWHDTALDYWGQGTLVTVSS
VL: DIQMTQSPSSLSASVGDRVTITCRASQSIVSYLNWYQQKPGKAPKLVIYAATSRASGVPSRFSGSGSGTDFTLTISSLQPEDFATYYCQQSYNSPLTFGGGTKVEIK
For the molecule B12, the optical density with Human ACVR2A came to 3.15 OD; with Mouse ACVR2A, 3.22 OD; in the test with Goat anti-Human Kappa it was 3.64 OD.

B13: 371_A03 (antibody, V domains shown)
VH: EVQLLESGGGLVQPGGSLRLSCAASGFTFSDYGMNWVRQAPGKGLEWVANINYNGGYTGYADSVKGRFTISRDNSKNTLYLQMNSLRAEDTAVYYCARSANWHDTALDYWGQGTLVTVSS
VL: DIQMTQSPSSLSASVGDRVTITCRASQSILSYLNWYQQKPGKAPKLVIYATTSRASGVPSRFSGSGSGTDFTLTISSLQPEDFATYYCQQSYESPLTFGGGTKVEIK
Take B13: the optical density is 2.84 OD with Human ACVR2A, 2.62 OD with Mouse ACVR2A and 3.56 OD with Goat anti-Human Kappa.

B14: 371_A06 (antibody, V domains shown)
VH: EVQLLESGGGLVQPGGSLRLSCAASGFTFSSYGMNWVRQAPGKGLEWVAGINYNGGYTSYADSVKGRFTISRDNSKNTLYLQMNSLRAEDTAVYYCARSANWHDTALDYWGQGTLVTVSS
VL: DIQMTQSPSSLSASVGDRVTITCRASQSILTYLNWYQQKPGKAPKLVIYAATSRHSGVPSRFSGSGSGTDFTLTISSLQPEDFATYYCQQSYDSPLTFGGGTKVEIK
For the molecule B14, the optical density came out at 2.65 OD with Human ACVR2A, 2.79 OD in the test with Mouse ACVR2A and 3.51 OD in the test with Goat anti-Human Kappa.

B15: 370_G11 (antibody, V domains shown)
VH: EVQLLESGGGLVQPGGSLRLSCAASGFTFSSYSMNWVRQAPGKGLEWVASINYNSGYTSYADSVKGRFTISRDNSKNTLYLQMNSLRAEDTAVYYCARSANWHDTHLDYWGQGTLVTVSS
VL: DIQMTQSPSSLSASVGDRVTITCRASQSIVSYLNWYQQKPGKAPKLVIYAATSRASGVPSRFSGSGSGTDFTLTISSLQPEDFATYYCQQSYSLPLTFGGGTKVEIK
Consider B15, for which the optical density worked out at 2.98 OD with Human ACVR2A, 3.07 OD with Mouse ACVR2A and 3.72 OD with Goat anti-Human Kappa.

B16: 370_E03 (antibody, V domains shown)
VH: EVQLLESGGGLVQPGGSLRLSCAASGFTFSSYGMNWVRQAPGKGLEWVSSINYNGGYKGYADSVKGRFTISRDNSKNTLYLQMNSLRAEDTAVYYCARSANWHDTALDYWGQGTLVTVSS
VL: DIQMTQSPSSLSASVGDRVTITCRASQSILTYLNWYQQKPGKAPKLVIYYASNRASGVPSRFSGSGSGTDFTLTISSLQPEDFATYYCQQSYDSPLTFGGGTKVEIK
Turning to B16, the optical density with Human ACVR2A was 3.64 OD; in the test with Mouse ACVR2A it was 3.74 OD; with Goat anti-Human Kappa, 3.57 OD.

B17: 370_H09 (antibody, V domains shown)
VH: EVQLLESGGGLVQPGGSLRLSCAASGFTFSSYGMNWVRQAPGKGLEWVANINYNGGYTSYADSVKGRFTISRDNSKNTLYLQMNSLRAEDTAVYYCARSANWHDTALDYWGQGTLVTVSS
VL: DIQMTQSPSSLSASVGDRVTITCRASQSIVSYVNWYQQKPGKAPKLLIYAATSRASGVPSRFSGSGSGTDFTLTISSLQPEDFATYYCQQSYDNPLTFGGGTKVEIK
For B17, the optical density in the test with Human ACVR2A is 2.95 OD; with Mouse ACVR2A it was 3.28 OD; with Goat anti-Human Kappa, 3.54 OD.
